Laboratory results taken from article PMC2172161 (The Journal of Cell Biology, 2004).

B1: His6Cdc12–Cdc3–Cdc10–Cdc11 complex (complex)
chain 1: MSAATATAAPVPPPVGISNLPNQRYKIVNEEGGTFTVMLCGESGLGKTTFINTLFQTVLKRADGQQHRQEPIRKTVEIDITRALLEEKHFELRVNVIDTPGFGDNVNNNKAWQPLVDFIDDQHDSYMRQEQQPYRTKKFDLRVHAVLYFIRPTGHGLKPIDIETMKRLSTRANLIPVIAKADTLTAQELQQFKSRIRQVIEAQEIRIFTPPLDADSKEDAKSGSNPDSAAVEHARQLIEAMPFAIVGSEKKFDNGQGTQVVARKYPWGLVEIENDSHCDFRKLRALLLRTYLLDLISTTQEMHYETYRRLRLEGHENTGEGNEDFTLPAIAPARKLSHNPRYKEEENALKKYFTDQVKAEEQRFRQWEQNIVNERIRLNGDLEEIQGKVKKLEEQVKSLQVKKSHLK
chain 2: MSLKEEQVSIKQDPEQEERQHDQFNDVQIKQESQDHDGVDSQYTNGTQNDDSERFEAAESDVKVEPGLGMGITSSQSEKGQVLPDQPEIKFIRRQINGYVGFANLPKQWHRRSIKNGFSFNLLCVGPDGIGKTTLMKTLFNNDDIEANLVKDYEEELANDQEEEEGQGEGHENQSQEQRHKVKIKSYESVIEENGVKLNLNVIDTEGFGDFLNNDQKSWDPIIKEIDSRFDQYLDAENKINRHSINDKRIHACLYFIEPTGHYLKPLDLKFMQSVYEKCNLIPVIAKSDILTDEEILSFKKTIMNQLIQSNIELFKPPIYSNDDAENSHLSERLFSSLPYAVIGSNDIVENYSGNQVRGRSYPWGVIEVDNDNHSDFNLLKNLLIKQFMEELKERTSKILYENYRSSKLAKLGIKQDNSVFKEFDPISKQQEEKTLHEAKLAKLEIEMKTVFQQKVSEKEKKLQKSETELFARHKEMKEKLTKQLKALEDKKKQLELSINSASPNVNHSPVPTKKKGFLR
chain 3: MDPLSSVQPASYVGFDTITNQIEHRLLKKGFQFNIMVVGQSGLGKSTLINTLFASHLIDSATGDDISALPVTKTTEMKISTHTLVEDRVRLNINVIDTPGFGDFIDNSKAWEPIVKYIKEQHSQYLRKELTAQRERFITDTRVHAILYFLQPNGKELSRLDVEALKRLTEIANVIPVIGKSDTLTLDERTEFRELIQNEFEKYNFKIYPYDSEELTDEELELNRSVRSIIPFAVVGSENEIEINGETFRGRKTRWSAINVEDINQCDFVYLREFLIRTHLQDLIETTSYIHYEGFRARQLIALKENANSRSSAHMSSNAIQR
chain 4: MSGIIDASSALRKRKHLKRGITFTVMIVGQSGSGRSTFINTLCGQQVVDTSTTILLPTDTSTEIDLQLREETVELEDDEGVKIQLNIIDTPGFGDSLDNSPSFEIISDYIRHQYDEILLEESRVRRNPRFKDGRVHCCLYLINPTGHGLKEIDVEFIRQLGSLVNIIPVISKSDSLTRDELKLNKKLIMEDIDRWNLPIYNFPFDEDEISDEDYETNMYLRTLLPFAIIGSNEVYEMGGDVGTIRGRKYPWGILDVEDSSISDFVILRNALLISHLHDLKNYTHEILYERYRTEALSGESVAAESIRPNLTKLNGSSSSSTTTRRNTNPFKQSNNINNDVLNPASDMHGQSTGENNETYMTREEQIRLEEERLKAFEERVQQELLLKRQELLQREKELREIEARLEKEAKIKQEE
B2: His6-Cdc10 (natural protein)
chain: MDPLSSVQPASYVGFDTITNQIEHRLLKKGFQFNIMVVGQSGLGKSTLINTLFASHLIDSATGDDISALPVTKTTEMKISTHTLVEDRVRLNINVIDTPGFGDFIDNSKAWEPIVKYIKEQHSQYLRKELTAQRERFITDTRVHAILYFLQPNGKELSRLDVEALKRLTEIANVIPVIGKSDTLTLDERTEFRELIQNEFEKYNFKIYPYDSEELTDEELELNRSVRSIIPFAVVGSENEIEINGETFRGRKTRWSAINVEDINQCDFVYLREFLIRTHLQDLIETTSYIHYEGFRARQLIALKENANSRSSAHMSSNAIQR
B3: His6-Cdc3 (natural protein)
chain: MSLKEEQVSIKQDPEQEERQHDQFNDVQIKQESQDHDGVDSQYTNGTQNDDSERFEAAESDVKVEPGLGMGITSSQSEKGQVLPDQPEIKFIRRQINGYVGFANLPKQWHRRSIKNGFSFNLLCVGPDGIGKTTLMKTLFNNDDIEANLVKDYEEELANDQEEEEGQGEGHENQSQEQRHKVKIKSYESVIEENGVKLNLNVIDTEGFGDFLNNDQKSWDPIIKEIDSRFDQYLDAENKINRHSINDKRIHACLYFIEPTGHYLKPLDLKFMQSVYEKCNLIPVIAKSDILTDEEILSFKKTIMNQLIQSNIELFKPPIYSNDDAENSHLSERLFSSLPYAVIGSNDIVENYSGNQVRGRSYPWGVIEVDNDNHSDFNLLKNLLIKQFMEELKERTSKILYENYRSSKLAKLGIKQDNSVFKEFDPISKQQEEKTLHEAKLAKLEIEMKTVFQQKVSEKEKKLQKSETELFARHKEMKEKLTKQLKALEDKKKQLELSINSASPNVNHSPVPTKKKGFLR
B4: Heterotetrameric complex containing just Cdc12(T48N), but wild-type Cdc3, Cdc10, and Cdc11 (complex)
chain 1: MSAATATAAPVPPPVGISNLPNQRYKIVNEEGGTFTVMLCGESGLGKNTFINTLFQTVLKRADGQQHRQEPIRKTVEIDITRALLEEKHFELRVNVIDTPGFGDNVNNNKAWQPLVDFIDDQHDSYMRQEQQPYRTKKFDLRVHAVLYFIRPTGHGLKPIDIETMKRLSTRANLIPVIAKADTLTAQELQQFKSRIRQVIEAQEIRIFTPPLDADSKEDAKSGSNPDSAAVEHARQLIEAMPFAIVGSEKKFDNGQGTQVVARKYPWGLVEIENDSHCDFRKLRALLLRTYLLDLISTTQEMHYETYRRLRLEGHENTGEGNEDFTLPAIAPARKLSHNPRYKEEENALKKYFTDQVKAEEQRFRQWEQNIVNERIRLNGDLEEIQGKVKKLEEQVKSLQVKKSHLK
chain 2: MSLKEEQVSIKQDPEQEERQHDQFNDVQIKQESQDHDGVDSQYTNGTQNDDSERFEAAESDVKVEPGLGMGITSSQSEKGQVLPDQPEIKFIRRQINGYVGFANLPKQWHRRSIKNGFSFNLLCVGPDGIGKTTLMKTLFNNDDIEANLVKDYEEELANDQEEEEGQGEGHENQSQEQRHKVKIKSYESVIEENGVKLNLNVIDTEGFGDFLNNDQKSWDPIIKEIDSRFDQYLDAENKINRHSINDKRIHACLYFIEPTGHYLKPLDLKFMQSVYEKCNLIPVIAKSDILTDEEILSFKKTIMNQLIQSNIELFKPPIYSNDDAENSHLSERLFSSLPYAVIGSNDIVENYSGNQVRGRSYPWGVIEVDNDNHSDFNLLKNLLIKQFMEELKERTSKILYENYRSSKLAKLGIKQDNSVFKEFDPISKQQEEKTLHEAKLAKLEIEMKTVFQQKVSEKEKKLQKSETELFARHKEMKEKLTKQLKALEDKKKQLELSINSASPNVNHSPVPTKKKGFLR
chain 3: MDPLSSVQPASYVGFDTITNQIEHRLLKKGFQFNIMVVGQSGLGKSTLINTLFASHLIDSATGDDISALPVTKTTEMKISTHTLVEDRVRLNINVIDTPGFGDFIDNSKAWEPIVKYIKEQHSQYLRKELTAQRERFITDTRVHAILYFLQPNGKELSRLDVEALKRLTEIANVIPVIGKSDTLTLDERTEFRELIQNEFEKYNFKIYPYDSEELTDEELELNRSVRSIIPFAVVGSENEIEINGETFRGRKTRWSAINVEDINQCDFVYLREFLIRTHLQDLIETTSYIHYEGFRARQLIALKENANSRSSAHMSSNAIQR
chain 4: MSGIIDASSALRKRKHLKRGITFTVMIVGQSGSGRSTFINTLCGQQVVDTSTTILLPTDTSTEIDLQLREETVELEDDEGVKIQLNIIDTPGFGDSLDNSPSFEIISDYIRHQYDEILLEESRVRRNPRFKDGRVHCCLYLINPTGHGLKEIDVEFIRQLGSLVNIIPVISKSDSLTRDELKLNKKLIMEDIDRWNLPIYNFPFDEDEISDEDYETNMYLRTLLPFAIIGSNEVYEMGGDVGTIRGRKYPWGILDVEDSSISDFVILRNALLISHLHDLKNYTHEILYERYRTEALSGESVAAESIRPNLTKLNGSSSSSTTTRRNTNPFKQSNNINNDVLNPASDMHGQSTGENNETYMTREEQIRLEEERLKAFEERVQQELLLKRQELLQREKELREIEARLEKEAKIKQEE

How the values were obtained:
[1] = molecular target: the molecule itself; assay: fluorescence microscopy of purified complexes on slides
[2] = molecular target: T1, GST-Cla4 (S. cerevisiae, UniProt P48562 1-842); assay: pull-down
T1 sequence: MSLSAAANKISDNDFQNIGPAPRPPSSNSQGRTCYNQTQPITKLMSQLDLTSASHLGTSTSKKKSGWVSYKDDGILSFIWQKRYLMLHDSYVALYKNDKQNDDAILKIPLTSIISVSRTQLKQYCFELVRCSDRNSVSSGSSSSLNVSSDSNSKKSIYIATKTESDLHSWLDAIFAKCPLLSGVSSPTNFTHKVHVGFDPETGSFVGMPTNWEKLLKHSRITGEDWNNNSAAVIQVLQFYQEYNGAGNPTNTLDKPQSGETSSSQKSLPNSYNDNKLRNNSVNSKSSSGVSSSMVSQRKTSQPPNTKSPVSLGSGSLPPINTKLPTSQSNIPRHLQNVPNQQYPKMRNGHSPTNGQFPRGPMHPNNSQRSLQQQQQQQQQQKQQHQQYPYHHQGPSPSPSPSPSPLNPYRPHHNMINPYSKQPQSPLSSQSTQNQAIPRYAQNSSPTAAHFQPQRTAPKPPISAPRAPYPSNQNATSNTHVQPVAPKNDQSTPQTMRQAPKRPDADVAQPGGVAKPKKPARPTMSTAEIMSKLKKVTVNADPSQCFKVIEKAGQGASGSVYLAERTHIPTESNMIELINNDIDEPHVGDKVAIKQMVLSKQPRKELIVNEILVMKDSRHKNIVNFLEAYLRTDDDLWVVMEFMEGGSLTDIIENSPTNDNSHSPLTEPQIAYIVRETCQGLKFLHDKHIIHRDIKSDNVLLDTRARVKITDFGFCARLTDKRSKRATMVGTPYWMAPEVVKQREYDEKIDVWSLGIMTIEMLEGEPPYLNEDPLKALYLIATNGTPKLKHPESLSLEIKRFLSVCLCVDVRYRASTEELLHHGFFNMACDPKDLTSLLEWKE

| Binder | binding result [1] | binding result [2] |
| --- | --- | --- |
| B1 | binds |  |
| B2 |  | binds |
| B3 |  | binds |
| B4 | binds |  |
